Source: paper PMC3553952 (Nucleic Acids Research, 2012)

How the values were obtained:
[1] = molecular target: the molecule itself; assay: SEC
[2] = molecular target: T1, Pab-aCPSF1 (Pyrococcus abyssi, UniProt Q9V0P0 1-648); assay: EMSA
T1 sequence: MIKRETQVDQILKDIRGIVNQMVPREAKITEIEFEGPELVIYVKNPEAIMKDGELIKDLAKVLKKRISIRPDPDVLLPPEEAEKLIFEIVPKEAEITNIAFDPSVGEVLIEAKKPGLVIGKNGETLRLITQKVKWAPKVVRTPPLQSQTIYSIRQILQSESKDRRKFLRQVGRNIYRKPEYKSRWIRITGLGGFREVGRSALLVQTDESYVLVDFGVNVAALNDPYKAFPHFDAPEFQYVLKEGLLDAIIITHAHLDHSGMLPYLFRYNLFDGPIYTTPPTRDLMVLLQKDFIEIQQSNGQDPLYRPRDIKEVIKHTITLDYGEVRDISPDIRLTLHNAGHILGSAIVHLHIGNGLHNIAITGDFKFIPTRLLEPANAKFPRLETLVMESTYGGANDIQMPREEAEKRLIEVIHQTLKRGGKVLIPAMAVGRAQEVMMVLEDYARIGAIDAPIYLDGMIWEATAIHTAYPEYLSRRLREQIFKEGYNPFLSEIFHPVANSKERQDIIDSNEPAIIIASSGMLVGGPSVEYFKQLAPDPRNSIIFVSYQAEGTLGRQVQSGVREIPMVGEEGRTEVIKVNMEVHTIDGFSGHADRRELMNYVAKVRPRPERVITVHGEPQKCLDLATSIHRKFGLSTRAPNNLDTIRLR

| Binder | stoichiometry N [1] | binding result [2] |
| --- | --- | --- |
| Pab-aCPSF1ΔKH (variant missing the first 179 residues of Pab-aCPSF1) (domain or fragment, Pyrococcus abyssi, UniProt Q9V0P0 180-648, looked up) EYKSRWIRITGLGGFREVGRSALLVQTDESYVLVDFGVNVAALNDPYKAFPHFDAPEFQYVLKEGLLDAIIITHAHLDHSGMLPYLFRYNLFDGPIYTTPPTRDLMVLLQKDFIEIQQSNGQDPLYRPRDIKEVIKHTITLDYGEVRDISPDIRLTLHNAGHILGSAIVHLHIGNGLHNIAITGDFKFIPTRLLEPANAKFPRLETLVMESTYGGANDIQMPREEAEKRLIEVIHQTLKRGGKVLIPAMAVGRAQEVMMVLEDYARIGAIDAPIYLDGMIWEATAIHTAYPEYLSRRLREQIFKEGYNPFLSEIFHPVANSKERQDIIDSNEPAIIIASSGMLVGGPSVEYFKQLAPDPRNSIIFVSYQAEGTLGRQVQSGVREIPMVGEEGRTEVIKVNMEVHTIDGFSGHADRRELMNYVAKVRPRPERVITVHGEPQKCLDLATSIHRKFGLSTRAPNNLDTIRLR | 2 | – |
| sR47MutCG (structured_RNA) RNA: GAUGAAGAUGAUGAGCUCGGCAGGUCCUGAGGAGUGAUGAGGAUCUGCUGAGUGCUGAUUCACCUU | – | binds |
| sR47Mut21U (structured_RNA) RNA: GAUGAAGAUGAUGAGCUCGGUAGGUCCUGAGGAGUGAUGAGGAUCUUGAGUGCUGAUUCACCUU | – | binds |
